The source of these data is paper PMC2515308, “Structural characterization of CA1462, the Candida albicans thiamine pyrophosphokinase” (BMC Structural Biology, 2008).

Data set [1] deals with Candida albicans thiamine pyrophosphokinase CA1462 (Candida albicans). In words: SEC; gel filtration of the purified TPK proteins on a Sephacryl S200 HR column. A general note: In gel filtration, larger molecules generally elute earlier.
Data set [2] deals with the molecule itself. The data set is described as above.

Broadly, the stoichiometry N is a count of units in the complex or per binding partner. “Candida albicans thiamine pyrophosphokinase CA1462 (enzyme)”: the stoichiometry N in data set [1] was 2.

B1: Saccharomyces cerevisiae thiamine pyrophosphokinase YOR143C (enzyme)
chain: GHHHQLSEECIENPERIKIGTDLINIRNKMNLKELIHPNEDENSTLLILNQKIDIPRPLFYKIWKLHDLKVCADGAANRLYDYLDDDETLRIKYLPNYIIGDLDSLSEKVYKYYRKNKVTIIKQTTQYSTDFTKCVNLISLHFNSPEFRSLISNKDNLQSNHGIELEKGIHTLYNTMTESLVFSKVTPISLLALGGIGGRFDQTVHSITQLYTLSENASYFKLCYMTPTDLIFLIKKNGTLIEYDPQFRNTCIGNCGLLPIGEATLVKETRGLKWDVKNWPTSVVTGRVSSSNRFVGDNCCFIDTKDDIILNVEIFVDKLIDFLQLDGDLEAA
For the molecule B1, the “stoichiometry N” value in data set [2] is 2.
